Measurements taken from paper PMC12022973, “Proteomimetic Strategy for the Modulation of Intrinsically Disordered Protein MYC” (Journal of the American Chemical Society, 2025).
Positions of bridges follow the written chain, without caps; N, C: chain ends. Chains are numbered I, II in the order given. No end group written: not given here.

B1: fluorescein-labeled CHD^Max-3 (negative control) (designed binder)
chain 1: LREKAATLQWCIEELRK
chain 2: LRRKAETAQWEIEELC
modifications: bridge I:11-II:16; not fully specified (bridges); also: fluorescein label, chain and position not given here
B2: fluorescein-labeled CHD^Max-2 (designed binder)
chain 1: LREKIATLQWCIEELRK
chain 2: LEARIETHQWRIRELCE
modifications: bridge I:11-II:16; not fully specified (bridges); also: fluorescein label, chain and position not given here
B3: fluorescein-labeled CHD^Max-1 (cross-linked helix dimer derived from MAX) (designed binder)
chain 1: LREKIATLQWCIEELRK
chain 2: LRRKNETHQWEIEELC
modifications: bridge I:11-II:16; not fully specified (bridges); also: fluorescein label, chain and position not given here

Molecular target: T1, recombinant human MYC^353–437 protein (human)
T1 construct: MYC, human, residues 353-437; Aggregates above 5 μM; also called His6-MYC^353–437; source: recombinant
Experiment: fluorescence polarisation; fluorescein-labeled CHDs with His6-MYC^353–437, His6-MAX or the MYC/MAX complex; MYC up to 5 μM (aggregation above)
Conditions: both partners purified

| Binder | Kd |
| --- | --- |
| B1 | > 5000 nM |
| B2 | 880 ± 53 nM |
| B3 | 350 ± 17 nM |
